Reference: patent publication CN116472284A

B1: Nb6-bi (bivalent Nb6 with a 15 amino acid linker) (VHH)
chain: QVQLVESGGGLVQAGGSLRLSCAASGIIFGRNAMGWYRQAPGKERELVAGITRRGSITYYADSVKGRFTISRDNAKNTVYLQMNSLKPEDTAVYYCAADPASPAPGDYWGQGTQVTVSSGGGGSGGGGSGGGGSQVQLVESGGGLVQAGGSLRLSCAASGIIFGRNAMGWYRQAPGKERELVAGITRRGSITYYADSVKGRFTISRDNAKNTVYLQMNSLKPEDTAVYYCAADPASPAPGDYWGQGTQVTVSS
B2: Nb6 (VHH)
VHH: QVQLVESGGGLVQAGGSLRLSCAASGIIFGRNAMGWYRQAPGKERELVAGITRRGSITYYADSVKGRFTISRDNAKNTVYLQMNSLKPEDTAVYYCAADPASPAPGDYWGQGTQVTVSS

Key:
[1] = target: SARS-CoV-2 spike ectodomain, prefusion-stabilised trimer (刺突 S2P) (SARS-CoV-2); assay: SPR, captured spike S2P, biphasic dissociation, slow phase kd2
[2] = target: SARS-CoV-2 spike ectodomain, prefusion-stabilised trimer (刺突 S2P) (SARS-CoV-2); assay: SPR, captured spike S2P, biphasic dissociation, fast phase kd1
[3] = target: SARS-CoV-2 spike ectodomain, prefusion-stabilised trimer (刺突 S2P) (SARS-CoV-2); assay: SPR, captured spike S2P
[4] = target: SARS-CoV-2 spike ectodomain, prefusion-stabilised trimer (刺突 S2P) (SARS-CoV-2)
[5] = target: SARS-CoV-2 spike ectodomain, prefusion-stabilised trimer (刺突 S2P) (SARS-CoV-2); assay: binding kinetics (SPR), Fig. 6A
[6] = target: SARS-CoV-2 spike ectodomain, prefusion-stabilised trimer (刺突 S2P) (SARS-CoV-2); remark: listed apart in the source

| Binder | koff [1] | koff [2] | fold gain in KD against monovalent Nb6 [3] | EC50 [4] | Kd [5] | IC50 [6] | Kd [3] | koff [3] |
| --- | --- | --- | --- | --- | --- | --- | --- | --- |
| B1 | 0.00031 s⁻¹ | 0.027 s⁻¹ | 750 fold |  |  |  |  |  |
| B2 |  |  |  | 359 nM | 210 nM | 370 nM | 210 nM | 0.056 s⁻¹ |
